This note sets out measurements from paper doi:10.1101/2021.12.03.471045 (bioRxiv, 2021).

In this test the target is early pandemic (Wuhan) SARS-CoV-2 RBD (SARS-CoV-2, UniProt P0DTC2). Nature of the test: crystal structure. Particulars: both partners purified.

B1: mAb 58 Fab (Fab, V domains shown)
VH: QVQLVESGGGLVQPGRSLRLSCAASGFTFDDYAMHWVRQPPGKGLEWVSGVSWNSGTIGYADSVKGRFIISRDNAKNSLYLQMNSLKAEDTALYYCAREVGGTFGVLISREGGLDYWGQGTLVTVSS
VL: SYELTQPPSVSVAPGQTARITCGGNTIGSKSVHWYQQRPGQAPVLVVYDDSDRPSGIPERFSGSNSGNTATLTISRVEAGDEADYYCQVWDSSSDRVVFGGGTKLTVL
B1: the binding result was “binds”.

B2: mAb 158 Fab (Fab, V domains shown)
VH: EVQLLESGGDLIQPGGSLRLSCAASGVTVSSNYMSWVRQAPGKGLEWVSIIYPGGSTFYADSVKGRFTISRDNSKNTLYLQMHSLRAEDTAVYYCARDLGSGDMDVWGKGTTVTVSS
VL: DIVMTQSPSFLSASVGDRVTITCRASQGISSYLAWYQQKPGKAPKLLIQAASTLQSGVPSRFSGSGSGTEFTLTISSLQPEDFATYYCQQLNSYRYTFGQGTKVEIK
Turning to B2, the binding result is “binds”.
